Here are results for twelve molecules from patent US20160068605A1 (Janssen / Centocor, published 2016).

What is called Kd is the equilibrium constant for the complex coming apart. Broadly, the koff is the first-order rate constant of dissociation. Broadly, the kon is a measure of how fast the partners come together.

The target of assay [1] is T1, Recombinant human CD123 SP1 ECD-His tag protein (human, UniProt P26951 20-305).
T1 construct: bought from R&D Systems (#301-R3/CF); biotinylated for some assays; also called rhCD123 SP1; huCD123 ECD SP1
T1 sequence: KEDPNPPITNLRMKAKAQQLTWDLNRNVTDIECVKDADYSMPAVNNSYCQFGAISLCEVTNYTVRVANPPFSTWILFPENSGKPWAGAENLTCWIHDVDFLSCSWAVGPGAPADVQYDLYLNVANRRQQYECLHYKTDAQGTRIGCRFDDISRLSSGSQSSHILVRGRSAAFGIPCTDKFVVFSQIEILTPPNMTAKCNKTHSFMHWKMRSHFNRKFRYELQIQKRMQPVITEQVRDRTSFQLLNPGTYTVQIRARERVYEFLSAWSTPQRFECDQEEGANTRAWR
Description: SPR Biacore 3000, captured Fab. The method, then:
Kinetic studies were performed at 25° C. using a Biacore 3000 (BIAcore, Inc., now part of GE Healthcare). […] Sheep anti-Human Fd specific antibody (The binding site Prod # PC075) was covalently attached to two flow cells (normally 3 and 4) of the carboxymethyl dextran coated gold surfaces (CM-5 Chip, Biacore). The carboxymethyl groups of dextran were activated with N-Ethyl-N′-(3-Dimethylaminopropyl)carbodiimide (EDC) and N-hydroxysuccinimide (NHS). The antibodies were coupled at pH 4.5 in 10 mM sodium acetate. Any remaining reactive sites on the surface were blocked by reaction with ethanolamine. […] Association data was collected for 2 min followed by 10 min of dissociation. The surface was regenerated with 30 μL of 100 mM H3PO4 100 μL/min. All samples were prepared in D-PBS containing 3 mM EDTA and 0.005% surfactant P20. Data reported is the difference in SPR signal between the flow cell containing the captured antibody or Fab and a reference cell without captured antibody or Fab. Additional instrumental contributions to the signal were removed by subtraction of the data from the blank injection from the reference-subtracted signal. Data were performed in triplicate and analyzed by fitting association and dissociation phases at all concentrations (global fit) with a 1:1 binding model using the BIAevaluation software (BIAcore, Inc.). […] Data presented is an average.
(In general: SPR reads the build-up and loss of mass on a sensor chip optically.)

Assay [2] deals with T2, cell-surface CD3 epsilon on primary cynomolgus T cells (cynomolgus monkey, UniProt Q95LI5 22-198).
T2 construct: whole, on cells; also called cynomolgus CD3e; Cyno T-cells
T2 sequence (Q95LI5 22-198): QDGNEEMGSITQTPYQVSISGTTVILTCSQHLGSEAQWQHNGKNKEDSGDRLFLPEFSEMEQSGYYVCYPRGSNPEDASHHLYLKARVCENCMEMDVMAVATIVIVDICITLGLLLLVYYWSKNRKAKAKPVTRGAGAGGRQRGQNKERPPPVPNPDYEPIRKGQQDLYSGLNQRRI
Nature of the assay: flow cytometry on primary cynomolgus CD4+ T cells, anti-human IgG Alexa Fluor 647; MFI. The procedure: (§1) The resulting panel of anti-CD3 antibodies was tested for binding against cell-surface CD3ε on primary human T cells. To do this, binding of antibodies from expression supernatants was visualized using a polyclonal anti-human secondary antibody and analyzed by flow cytometry. Briefly, binding of anti-CD3 antibodies to cell-surface CD3ε was assessed by flow cytometry using primary Human T lymphocytes purified by negative selection (Biological Specialty, Colmar, USA). Expression supernatants or purified antibodies were normalized to 10 μg/ml in media or FACS buffer (BD BioSciences), respectively. 2×10⁵ cells were aliquoted into wells of a 96 well round-bottomed plate (CoStar) for labeling. Antibodies in expression supernatant were added to cells and incubated for 45 min at 4° C. Following centrifugation at 1300 rpm for 3 min and removal of supernatant, 50 μL of anti-human IgG (H+L) Alexa Fluor 647 secondary antibody (Life technologies Inc.) was incubated with the cells at a final concentration of 10 μg/mL for 30 min at 4° C. away from direct light. Following washing and resuspension in 30 μL FACs buffer (BD BioSciences). Sample collection was performed on an Intellicyt HTFC system using ForeCyt software. Viable single cells were gated prior to analysis of binding using the green or red fixable live/dead dyes (Life Technologies Inc.) and forward/side scatter area and height parameters, respectively. Graphs were generated in GraphPad Prism version 5 using mean fluorescence intensity values.
Binding analysis of the anti-CD3 hits to primary cynomolgusCD4⁺ T cells was then tested in order to assess the retention of cross-reactivity. Purified CD4⁺ T cells from the peripheral blood of cynomolgus monkeys (Zen Bio, Triangle Research Park, USA were used). Assay protocols were similar to those described above.
A general note: In flow cytometry, cells or beads pass a laser one at a time.

Assay [3] concerns the target T3, cell-surface CD3 epsilon on primary human T cells (human, UniProt P07766 23-207).
T3 construct: whole, on cells; part of the CD3/TCR complex on the cells
Description: flow cytometry on primary human T cells, anti-human IgG Alexa Fluor 647; MFI. The method, then:
as §1

T3 sequence (P07766 23-207): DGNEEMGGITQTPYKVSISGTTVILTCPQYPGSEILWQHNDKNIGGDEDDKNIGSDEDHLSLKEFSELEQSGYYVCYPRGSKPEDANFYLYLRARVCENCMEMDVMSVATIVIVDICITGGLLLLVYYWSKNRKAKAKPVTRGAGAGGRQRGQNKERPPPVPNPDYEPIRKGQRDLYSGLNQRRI

B1: I3RB122 (Fab, V domains shown)
VH: QVQLVQSGAEVKKPGSSVKVSCKASGGTFSSYAISWVRQAPGQGLEWMGGIIPIFGTANYAQKFQGRVTITADESTSTAYMELSSLRSEDTAVYYCARDKTDFPSRLDYWGQGTLVTVSS
VL: DIQMTQSPSSLSASVGDRVTITCRASQSIATWLNWYQQKPGKAPKLLIYAASSLQSGVPSRFSGSGSGTDFTLTISSLQPEDFATYYCQQYITFPLTFGQGTKVEIK
notes: also called Fab of I3RB37
For B1, in assay [1], the Kd came out at 11.5 nM, the off-rate (koff) is 0.0045 s⁻¹ and the on-rate (kon) stood at 393000 M⁻¹ s⁻¹.

B2: CD3B143 (antibody, IgG1, V domains shown)
VH: EVQLVESGGGLVQPGGSLRLSCAASGFTFNTYAMNWVRQAPGKGLEWVARIRSKYNNYATYYAASVKGRFTISRDDSKNSLYLQMNSLKTEDTAVYYCARHGNFGNSYVSWFAYWGQGTLVTVSS
VL: QAVVTQEPSLTVSPGGTVTLTCRSSTGAVTTSNYANWVQQKPGQAPRGLIGGTNKRAPGTPARFSGSLLGGKAALTLSGAQPEDEAEYYCALWYSNLWVFGGGTKLTVL
notes: IgG1 constant region with L234A, L235A, F405L; human lambda light chain constant region
B2: the binding result in assay [2] and in assay [3] was “binds” in each case.

B3: CD3B148 (antibody, IgG1, V domains shown)
VH: EVQLLESGGGLVQPGGSLRLSCAASGFTFNTYAMNWVRQAPGKGLEWVARIRSKYNNYATYYADSVKGRFTISRDNSKNTLYLQMNSLRAEDTAVYYCAKHGNFGNSYVSWFAYWGQGTLVTVSS
VL: QSVLTQPPSVSAAPGQKVTISCRSSTGAVTTSNYANWVQQLPGTAPKGLIGGTNKRAPGIPDRFSGSKSGTSATLGITGLQTGDEADYYCALWYSNLWVFGGGTKLTVL
notes: as for B2
For B3, in assay [2], the binding result was “no binding (tested: not printed)”.

B4: CD3B158 (antibody, IgG1, V domains shown)
VH: EVQLVESGGGLVQPGGSLKLSCAASGFTFNTYAMNWVRQASGKGLEWVGRIRSKYNGYATYYAASVKGRFTISRDDSKNTAYLQMNSLKTEDTAVYYCTRHGNFGNSYVSWFAYWGQGTLVTVSS
VL: QTVVTQEPSLTVSPGGTVTLTCRSSTGAVTTSNYANWVQQKPGQAPRGLIGGTNKRAPGTPARFSGSLLGGKAALTLSGVQPEDEAEYYCALWYSNLWVFGGGTKLTVL
notes: as for B2
As for B4, the binding result in assay [2] and in assay [3] was “binds” in each case.

B5: CD3B156 (antibody, IgG1, V domains shown)
VH: EVQLVESGGGLVQPGGSLKLSCAASGFTFNTYAMNWVRQASGKGLEWVGRIRSKYNGYATYYAASVKGRFTISRDDSKNTAYLQMNSLKTEDTAVYYCTRHGNFGNSYVSWFAYWGQGTLVTVSS
VL: QSVLTQPPSVSAAPGQKVTISCRSSTGAVTTSNYANWVQQLPGTAPKGLIGGTNKRAPGIPDRFSGSKSGTSATLGITGLQTGDEADYYCALWYSNLWVFGGGTKLTVL
notes: as for B2
As to B5, the binding result in assay [2] and in assay [3] was “binds” throughout.

B6: CD3B155 (antibody, IgG1, V domains shown)
VH: EVQLVESGGGLVQPGGSLKLSCAASGFTFNTYAMNWVRQASGKGLEWVGRIRSKYNGYATYYAASVKGRFTISRDDSKNTAYLQMNSLKTEDTAVYYCTRHGNFGNSYVSWFAYWGQGTLVTVSS
VL: QAVVTQEPSLTVSPGGTVTLTCRSSTGAVTTSNYANWVQQKPGQAPRGLIGGTNKRAPGTPARFSGSLLGGKAALTLSGAQPEDEAEYYCALWYSNLWVFGGGTKLTVL
notes: as for B2
With B6, the binding result in assay [2] and in assay [3] was “binds” each time.

B7: CD3B152 (antibody, IgG1, V domains shown)
VH: EVQLLESGGGLVQPGGSLRLSCAASGFTFNTYAMNWVRQAPGKGLEWVARIRSKYNNYATYYADSVKGRFTISRDNSKNTLYLQMNSLRAEDTAVYYCVKHGNFGNSYVSWFAYWGQGTLVTVSS
VL: QSVLTQPPSVSAAPGQKVTISCRSSTGAVTTSNYANWVQQLPGTAPKGLIGGTNKRAPGIPDRFSGSKSGTSATLGITGLQTGDEADYYCALWYSNLWVFGGGTKLTVL
notes: as for B2
As for B7, the binding result in assay [2] is reported as “no binding (tested: not printed)”; in assay [3], “no binding”.

B8: CD3B151 (antibody, IgG1, V domains shown)
VH: EVQLLESGGGLVQPGGSLRLSCAASGFTFNTYAMNWVRQAPGKGLEWVARIRSKYNNYATYYADSVKGRFTISRDNSKNTLYLQMNSLRAEDTAVYYCVKHGNFGNSYVSWFAYWGQGTLVTVSS
VL: QAVVTQEPSLTVSPGGTVTLTCRSSTGAVTTSNYANWVQQKPGQAPRGLIGGTNKRAPGTPARFSGSLLGGKAALTLSGAQPEDEAEYYCALWYSNLWVFGGGTKLTVL
notes: as for B2
Regarding B8, the binding result in assay [2] and in assay [3] was “binds” each time.

B9: CD3B154 (antibody, IgG1, V domains shown)
VH: EVQLLESGGGLVQPGGSLRLSCAASGFTFNTYAMNWVRQAPGKGLEWVARIRSKYNNYATYYADSVKGRFTISRDNSKNTLYLQMNSLRAEDTAVYYCVKHGNFGNSYVSWFAYWGQGTLVTVSS
VL: QTVVTQEPSLTVSPGGTVTLTCRSSTGAVTTSNYANWVQQKPGQAPRGLIGGTNKRAPGTPARFSGSLLGGKAALTLSGVQPEDEAEYYCALWYSNLWVFGGGTKLTVL
notes: as for B2
For B9, the binding result in assay [2] and in assay [3] was “binds” throughout.

B10: CD3B144 (antibody, IgG1, V domains shown)
VH: EVQLVESGGGLVQPGGSLRLSCAASGFTFNTYAMNWVRQAPGKGLEWVARIRSKYNNYATYYAASVKGRFTISRDDSKNSLYLQMNSLKTEDTAVYYCARHGNFGNSYVSWFAYWGQGTLVTVSS
VL: QSVLTQPPSVSAAPGQKVTISCRSSTGAVTTSNYANWVQQLPGTAPKGLIGGTNKRAPGIPDRFSGSKSGTSATLGITGLQTGDEADYYCALWYSNLWVFGGGTKLTVL
notes: as for B2
On to B10, for which the binding result in assay [3] was “no binding”.

B11: G11 (antibody, V domains shown)
VH: EVQLLESGGGLVQPGGSLRLSCAASGFTFSSYGMSWVRQAPGKGLEWVSGINGGGGSKYYADSVKGRFTISRDNSKNTLYLQMNSLRAEDTAVYYCAKTSAQRFDYWGQGTLVTVSS
VL: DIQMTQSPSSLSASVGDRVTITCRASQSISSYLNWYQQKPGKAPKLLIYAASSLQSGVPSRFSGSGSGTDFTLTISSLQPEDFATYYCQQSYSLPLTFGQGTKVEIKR
notes: in-house phage-derived anti-CD3 positive control with the same Fc region as the tested antibodies
For the molecule B11, the binding result in assay [3] is listed as “binds”.

B12: CD3B124 (antibody, human IgG1, V domains shown)
VH: EVKLLESGGGLVQPKGSLKLSCAASGFTFNTYAMNWVRQAPGKGLEWVARIRSKYNNYATYYADSVKDRFTISRDDSQSILYLQMNNLKTEDTAMYYCVRHGNFGNSYVSWFAYWGQGTLVTVSA
VL: QAVVTQESALTTSPGETVTLTCRSSTGAVTTSNYANWVQEKPDHLFTGLIGGTNKRAPGVPARFSGSLIGDKAALTITGAQTEDEAIYFCALWYSNLWVFGGGTKLTVL
notes: Chimeric: VH and VL of SP34 with murine framework and a human IgG1 Fc; also called in-house chimeric SP34-derived antibody
As for B12, the binding result in assay [2] was “binds”.
